In patent publication US20250152746A1, “BASE EDITING OF ANGPTL3 AND METHODS OF USING SAME FOR TREATMENT OF DISEASE” (Verve Therapeutics, Inc., priority 2020, published 2025):
In the oligonucleotide strings, read from the 5' end, every base follows the letter of its sugar. An asterisk marks phosphorothioate; unmarked linkages are phosphodiester. Other units and linkages are bracketed, terminal groups are in braces. A string of capitals states the bases alone. m = 2'-O-methyl; r = 2'-OH (RNA)

Experiments:
PCSK9 gene [1] = assay: PCSK9 gRNA/SpCas9 editing in primary cynomolgus hepatocytes (Tables 2, 22); assay type: cell-based, cynomolgus monkey; details: SpCas9 mRNA MS002 1:1 by weight; for Cyno Primary Hepatocyte Editing % 100: 100 ng/RNA/mL; for Cyno Primary Hepatocyte Editing % 500: 500 ng/RNA/mL; for Cyno Primary Hepatocyte Editing % 2500: 2500 ng/RNA/mL
PCSK9 gene [2] = assay: PCSK9 gRNA/SpCas9 editing in primary human hepatocytes (Tables 2, 4); assay type: cell-based; details: SpCas9 mRNA MS002 1:1 by weight; for Human Primary Hepatocyte Editing % 100: 100 ng/RNA/mL; for Human Primary Hepatocyte Editing % 500: 500 ng/RNA/mL; for Human Primary Hepatocyte Editing % 2500: 2500 ng/RNA/mL
Summary of the method: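 Editing at the PCSK9 site quantified by NGS of PCR amplicons from genomic DNA. Input: SpCas9 mRNA with gRNA, 1:1 by weight, transfected into primary human hepatocytes at 2500, 500 or 100 ng RNA/mL (tracr-modified guides at 2500, 1250, 500, 250 ng/mL).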

PCSK9 gene splice site = assay type: cell-based, human
Description: PCSK9 gRNAs were co-transfected with an equivalent amount of in vitro transcribed ABE8.8 mRNA MA002 (1:1 ratio by weight) into primary hepatocytes and processed as described in detailed methods. In one set of experiments, extracted genomic DNA was analyzed for base editing of the target splice site with next-generation sequencing of PCR amplicons generated around the target sites. Samples were prepared using the Nextera XT DNA library preparation kit (Illumina) according to the manufacturer's protocol. Briefly, two rounds of PCR were performed first to amplify the region of interest and second to add DNA sequences required for next generation sequencing and sample identification to the initial product. The final amplicon was sequenced on the Illumina MiSeq instrument according to the manufacturer's protocol.
Similarly, three gRNAs (GA098, GA099, GA100) were synthesized matching the 5′-[…]-3′ (SEQ ID NO: 15) (GA091) human protospacer sequence, as well as four gRNAs (GA067/GA101, GA102, GA103, GA347) matching the 5′-[…]-3′ (SEQ ID NO: 14) (GA067) cynomolgus protospacer sequence, but with more extensive chemical modifications of various kinds (Table 1). GA066 and GA095 contain the same chemical composition and modification pattern, as do GA067 and GA101 with one another. […] Each of the gRNAs described in Table 8, with an equivalent amount of in vitro transcribed ABE8.8 mRNA MA002 (1:1 ratio by weight), were co-transfected into primary human hepatocytes and primary cynomolgus hepatocytes via MessengerMax reagent, using various dilutions to assess for editing activity at different concentrations of test article. Three days after transfection, genomic DNA was harvested from the hepatocytes, and then assessed for base editing of the target splice site with next-generation sequencing.
Modifications and/or truncations to either the spacer or tracr portion of the gRNA was assessed by alteration of the GA066 spacer (5′-[…]-3′ (SEQ ID NO: 13)) (Table 12). […] Each of the gRNAs with an equivalent amount of in vitro transcribed ABE8.8 mRNA (1:1 ratio by weight) were co-transfected into primary human hepatocytes and primary cynomolgus hepatocytes and processed as described in detailed methods. […]

Molecule | Cyno Primary Hepatocyte Editing % 100 (PCSK9 gene [1]) [%] | Cyno Primary Hepatocyte Editing % 500 (PCSK9 gene [1]) [%] | Cyno Primary Hepatocyte Editing % 2500 (PCSK9 gene [1]) [%] | Human Primary Hepatocyte Editing % 100 (PCSK9 gene [2]) [%] | Human Primary Hepatocyte Editing % 500 (PCSK9 gene [2]) [%] | Human Primary Hepatocyte Editing % 2500 (PCSK9 gene [2]) [%] | Human Primary Hepatocytes-splice site editing % 1250 ng/mL (PCSK9 gene splice site) [%] | Human Primary Hepatocytes-splice site editing % 2500 ng/mL (PCSK9 gene splice site) [%] | Human Primary Hepatocytes-splice site editing % 5000 ng/mL (PCSK9 gene splice site) [%]
GA182: PCSK9 gRNA; protospacer CACCTACGTGGTGGTGCTGA (SEQ ID NO: 176) (nucleic acid) guide: mC*mA*mC*rCrUrArCrGrUrGrGrUrGrGrUrGrCrUrGrArGrUrUrUrUrArGrArGrCrUrArGrArArArUrArGrCrArArGrUrUrArArArArUrArArGrGrCrUrArGrUrCrCrGrUrUrArUrCrArArCrUrUrGrArArArArArGrUrGrGrCrArCrCrGrArGrUrCrGrGrUrGrCrU*mU*mU*mU | 1.55 | 6.14 | 22.89 | 0.95 | 4.49 | 17.44 | – | – | –
GA183: PCSK9 gRNA; protospacer CTACGTGGTGGTGCTGAAGG (SEQ ID NO: 177) (nucleic acid) guide: mC*mU*mA*rCrGrUrGrGrUrGrGrUrGrCrUrGrArArGrGrGrUrUrUrUrArGrArGrCrUrArGrArArArUrArGrCrArArGrUrUrArArArArUrArArGrGrCrUrArGrUrCrCrGrUrUrArUrCrArArCrUrUrGrArArArArArGrUrGrGrCrArCrCrGrArGrUrCrGrGrUrGrCrU*mU*mU*mU | 2.87 | 15.99 | 39.56 | 2.21 | 9.89 | 32.35 | – | – | –
GA184: PCSK9 gRNA; protospacer ATGGAAGACATGCAGGATCT (SEQ ID NO: 178) (nucleic acid) guide: mA*mU*mG*rGrArArGrArCrArUrGrCrArGrGrArUrCrUrGrUrUrUrUrArGrArGrCrUrArGrArArArUrArGrCrArArGrUrUrArArArArUrArArGrGrCrUrArGrUrCrCrGrUrUrArUrCrArArCrUrUrGrArArArArArGrUrGrGrCrArCrCrGrArGrUrCrGrGrUrGrCrU*mU*mU*mU | 2.90 | 10.54 | 31.87 | 2.65 | 8.29 | 29.55 | – | – | –
GA185: PCSK9 gRNA; protospacer AGACATGCAGGATCTTGGTG (SEQ ID NO: 179) (nucleic acid) guide: mA*mG*mA*rCrArUrGrCrArGrGrArUrCrUrUrGrGrUrGrGrUrUrUrUrArGrArGrCrUrArGrArArArUrArGrCrArArGrUrUrArArArArUrArArGrGrCrUrArGrUrCrCrGrUrUrArUrCrArArCrUrUrGrArArArArArGrUrGrGrCrArCrCrGrArGrUrCrGrGrUrGrCrU*mU*mU*mU | 1.14 | 7.75 | 20.29 | 1.6 | 10.91 | 27.98 | – | – | –
GA186: PCSK9 gRNA; protospacer CTCATCTTCACCAGGAAGCC (SEQ ID NO: 180) (nucleic acid) guide: mC*mU*mC*rArUrCrUrUrCrArCrCrArGrGrArArGrCrCrGrUrUrUrUrArGrArGrCrUrArGrArArArUrArGrCrArArGrUrUrArArArArUrArArGrGrCrUrArGrUrCrCrGrUrUrArUrCrArArCrUrUrGrArArArArArGrUrGrGrCrArCrCrGrArGrUrCrGrGrUrGrCrU*mU*mU*mU | 1.96 | 7.59 | 33.48 | 0.79 | 3.57 | 12.01 | – | – | –
GA075: PCSK9 gRNA for ABE8.8 splice site editing, Human/Cyno (nucleic acid, listed as RNA; modified_base 1: mod_base = OTHER; note = 2'-O-Methyl-uridine phosphorothioate; modified_base 2: mod_base = OTHER; modified_base, PCSK9 gRNA for ABE8.8 splice site editing, Human/Cyno) guide: TTGGAAAGACGGAGGCAGCCGTTTTAGAGCTAGAAATAGCAAGTTAAAATAAGGCTAGTCCGTTATCAACTTGAAAAAGTGGCACCGAGTCGGTGCTTTT | – | – | – | – | – | – | 1.8 | 3.1 | 5.5
GA076: PCSK9 gRNA for ABE8.8 splice site editing, Human/Cyno (nucleic acid, 2'-O-methyl at 1, 2, other sugars, backbone and T or U not given here; further chemistry not fully specified, PCSK9 gRNA for ABE8.8 splice site editing, Human/Cyno) guide: GAAAGACGGAGGCAGCCTGGGTTTTAGAGCTAGAAATAGCAAGTTAAAATAAGGCTAGTCCGTTATCAACTTGAAAAAGTGGCACCGAGTCGGTGCTTTT | – | – | – | – | – | – | 1.6 | 3.9 | 4.9
